From paper PMC10786891, “Massively parallel profiling of RNA-targeting CRISPR-Cas13d”
Substitutions are numbered along the chain they refer to. Names may count otherwise.

T1: EsCas13d, nuclease-dead (Eubacterium siraeum, UniProt B0MS50, R295A;H300A;R849A;H854A)
T1 sequence: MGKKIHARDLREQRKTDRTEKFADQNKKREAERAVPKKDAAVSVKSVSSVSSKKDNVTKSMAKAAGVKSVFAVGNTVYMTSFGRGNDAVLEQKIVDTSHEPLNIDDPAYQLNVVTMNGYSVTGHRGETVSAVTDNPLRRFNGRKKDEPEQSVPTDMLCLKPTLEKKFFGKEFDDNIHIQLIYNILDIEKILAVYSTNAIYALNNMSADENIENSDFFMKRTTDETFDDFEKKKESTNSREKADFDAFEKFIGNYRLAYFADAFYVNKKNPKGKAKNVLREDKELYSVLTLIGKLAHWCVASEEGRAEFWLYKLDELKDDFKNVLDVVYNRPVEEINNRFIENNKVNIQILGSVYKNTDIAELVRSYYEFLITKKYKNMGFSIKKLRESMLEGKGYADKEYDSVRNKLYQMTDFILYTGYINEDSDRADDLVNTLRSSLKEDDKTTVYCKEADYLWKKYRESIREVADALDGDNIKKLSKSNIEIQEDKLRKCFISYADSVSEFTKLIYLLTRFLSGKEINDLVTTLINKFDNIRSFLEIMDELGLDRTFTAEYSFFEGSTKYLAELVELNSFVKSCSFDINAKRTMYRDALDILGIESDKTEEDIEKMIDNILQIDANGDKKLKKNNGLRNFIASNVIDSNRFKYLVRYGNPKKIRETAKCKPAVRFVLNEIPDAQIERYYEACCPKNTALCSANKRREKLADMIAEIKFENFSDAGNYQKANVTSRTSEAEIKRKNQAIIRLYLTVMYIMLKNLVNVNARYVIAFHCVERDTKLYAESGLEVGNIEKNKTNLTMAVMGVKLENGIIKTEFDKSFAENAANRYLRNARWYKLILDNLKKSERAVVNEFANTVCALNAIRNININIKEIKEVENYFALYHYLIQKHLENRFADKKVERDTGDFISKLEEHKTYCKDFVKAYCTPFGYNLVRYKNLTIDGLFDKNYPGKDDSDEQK

B1: target 1 insG 3' of 19,insG 3' of 3 (mixed)
RNA 1: CACCCGUGCAAAAAUGCAGGGGUCUAAAACUGAGCGGAUAACCUCUCUAUGG
RNA 2: GGGAAUGGAUCCACAUCUACGAAUUCGUACCAUGAGAGAGGUUAUCCGCUGCACCGAGAUCGGAAGAGCACACGU
B2: target 1 insG 3' of 20,insG 3' of 3 (mixed)
RNA 1: B1 RNA 1
RNA 2: B1 RNA 2 with U33G, G34U
B3: target 1 C2G,A18C (mixed)
RNA 1: B1 RNA 1
RNA 2: GGGAAUGGAUCCACAUCUACGAAUUCGUACCAUCGAGAGGUUAUCCGCUGACCGAGAUCGGAAGAGCACACGU
B4: target 1 insU 3' of 12,insC 3' of 12 (mixed)
RNA 1: B1 RNA 1
RNA 2: GGGAAUGGAUCCACAUCUACGAAUUCGUACCAUAGAGAGGUCUUAUCCGCUCACCGAGAUCGGAAGAGCACACGU
B5: target 1 U8G,U11C (mixed)
RNA 1: B1 RNA 1
RNA 2: B3 RNA 2 with C34A, U41C, U44G, G50C
B6: target 3 insG 3' of 7,insC 3' of 2 (mixed)
RNA 1: CACCCGUGCAAAAUUGCAGGGGUCUAAAACGACCUGAAUAUUUCAGAUCAAA
RNA 2: GGGAAUGGAUCCACAUCUACGAAUUCGUUUUUGAUCUGAAAUAUUGCAGGUCCUGCAGAUCGGAAGAGCACACGU
B7: target 3 insA 3' of 8,insA 3' of 6 (mixed)
RNA 1: B6 RNA 1
RNA 2: B6 RNA 2 with U45A, G46U, G49A, U51G, C52U
B8: target 3 del22 (mixed)
RNA 1: B6 RNA 1
RNA 2: GGGAAUGGAUCCACAUCUACGAAUUCGUUUUGAUCUGAAAUAUUCAGGUCUGCAGAUCGGAAGAGCACACGU
B9: target 3 insC 3' of 12,insU 3' of 3 (mixed)
RNA 1: B6 RNA 1
RNA 2: B6 RNA 2 with A41C, U42A, A43U, U44A, G46U, C52U
B10: target 3 insU 3' of 16,insA 3' of 2 (mixed)
RNA 1: B6 RNA 1
RNA 2: B6 RNA 2 with G38U, A39G, U42A, A43U, U44A, G46U, C52A
B11: target 3 insU 3' of 3,insA 3' of 2 (mixed)
RNA 1: B6 RNA 1
RNA 2: B6 RNA 2 with G46C, C47A, A48G, G50U, C52A
B12: target 3 insG 3' of 5,insG 3' of 5 (mixed)
RNA 1: B6 RNA 1
RNA 2: B6 RNA 2 with G46C, C47A, A48G, U51G, C52U
B13: target 3 insA 3' of 6,insG 3' of 5 (mixed)
RNA 1: B6 RNA 1
RNA 2: B6 RNA 2 with G46C, C47A, U51G, C52U
B14: target 3 C6G,A9G (mixed)
RNA 1: B6 RNA 1
RNA 2: GGGAAUGGAUCCACAUCUACGAAUUCGUUUUUGAUCUGAAAUGUUGAGGUCUGCAGAUCGGAAGAGCACACGU
B15: target 3 del1,del4 (mixed)
RNA 1: B6 RNA 1
RNA 2: GGGAAUGGAUCCACAUCUACGAAUUCGUUUUUGAUCUGAAAUAUUCAGUUGCAGAUCGGAAGAGCACACGU
B16: target 3 insU 3' of 13,insU 3' of 5 (mixed)
RNA 1: B6 RNA 1
RNA 2: B6 RNA 2 with A40U, U42A, A43U, U44A, G46U, G49U, U51G, C52U
B17: target 3 insA 3' of 6 (mixed)
RNA 1: B6 RNA 1
RNA 2: GGGAAUGGAUCCACAUCUACGAAUUCGUUUUUGAUCUGAAAUAUUCAAGGUCUGCAGAUCGGAAGAGCACACGU
B18: target 3 insU 3' of 16,insU 3' of 16 (mixed)
RNA 1: B6 RNA 1
RNA 2: GGGAAUGGAUCCACAUCUACGAAUUCGUUUUUGAUCUUUGAAAUAUUCAGGUCUGCAGAUCGGAAGAGCACACGU
B19: target 3 insG 3' of 9,insA 3' of 2 (mixed)
RNA 1: B6 RNA 1
RNA 2: B6 RNA 2 with U44G, G46U, C52A
B20: target 3 insA 3' of 4,insA 3' of 2 (mixed)
RNA 1: B6 RNA 1
RNA 2: B6 RNA 2 with G46C, C47A, A48G, G49A, C52A
B21: target 3 insC 3' of 22 (mixed)
RNA 1: B6 RNA 1
RNA 2: GGGAAUGGAUCCACAUCUACGAAUUCGUUUCUUGAUCUGAAAUAUUCAGGUCUGCAGAUCGGAAGAGCACACGU
B22: target 3 A11G,A18G (mixed)
RNA 1: B6 RNA 1
RNA 2: B14 RNA 2 with A34G, A41G, G43A, G46C
B23: target 3 C1G,U7C (mixed)
RNA 1: B6 RNA 1
RNA 2: B14 RNA 2 with G43A, U45C, G46C, C51G
B24: target 3 insA 3' of 6,insA 3' of 6 (mixed)
RNA 1: B6 RNA 1
RNA 2: B6 RNA 2 with G46C, C47A, G49A, U51G, C52U
B25: target 3 insU 3' of 13,insU 3' of 4 (mixed)
RNA 1: B6 RNA 1
RNA 2: B6 RNA 2 with A40U, U42A, A43U, U44A, G46U, G50U, U51G, C52U
B26: target 3 G3C,A11G (mixed)
RNA 1: B6 RNA 1
RNA 2: B14 RNA 2 with A41G, G43A, G46C, G49C
B27: target 3 U20C,U22A (mixed)
RNA 1: B6 RNA 1
RNA 2: B14 RNA 2 with U30A, U32C, G43A, G46C
B28: target 3 insU 3' of 4 (mixed)
RNA 1: B6 RNA 1
RNA 2: B17 RNA 2 with A48G, G49U
B29: target 3 insA 3' of 10,insC 3' of 10 (mixed)
RNA 1: B6 RNA 1
RNA 2: B18 RNA 2 with U38G, U39A, G40A, A42U, U44C
B30: target 3 insU 3' of 22,insC 3' of 19 (mixed)
RNA 1: B6 RNA 1
RNA 2: B18 RNA 2 with G33U, A34G, U35C, C36A, U38C
B31: target 3 insA 3' of 10,insC 3' of 4 (mixed)
RNA 1: B6 RNA 1
RNA 2: B6 RNA 2 with U44A, G46U, G50C, U51G, C52U
B32: target 3 insG 3' of 7,insG 3' of 2 (mixed)
RNA 1: B6 RNA 1
RNA 2: B6 RNA 2 with C52G

Target: T1, EsCas13d, nuclease-dead
Assay: crRNA (strand 1, pre-loaded); Mg2+; 40 mM Tris-HCl pH 7.5, 150 mM NaCl, 6 mM MgCl2, 1 mM DTT, 0.1% Tween-20, 0.2 mg/ml BSA; 25 C; 10 min per concentration, then washed
Details: tags: His6-TwinStrep-SUMO cleaved; N-terminal SNAP kept (SNAP-Surface 488); label: 3' end held by stalled T7 RNA polymerase

Binder | Kd
B1 | 41 ± 2.4 nM
B2 | 31 ± 9 nM
B3 | 44 ± 4 nM
B4 | 27.6 ± 2.9 nM
B5 | 29.5 ± 3.1 nM
B6 | 88 ± 17.5 nM
B7 | 58.5 ± 6.5 nM
B8 | 10.3 ± 1.2 nM
B9 | 106 ± 34 nM
B10 | 16.1 ± 1.9 nM
B11 | 39 ± 5 nM
B12 | 25.3 ± 5.25 nM
B13 | 5.51 ± 0.325 nM
B14 | 46.5 ± 5.5 nM
B15 | 18 ± 2.5 nM
B16 | 106 ± 45.5 nM

Binder | Kd
B17 | 7.8 ± 0.65 nM
B18 | 76.5 ± 12 nM
B19 | ~102 nM
B20 | 33 ± 7 nM
B21 | 21.4 ± 2.3 nM
B22 | 70 ± 25 nM
B23 | 73.5 ± 36 nM
B24 | 4.96 ± 0.355 nM
B25 | 49.5 ± 17.5 nM
B26 | 61 ± 12 nM
B27 | 55 ± 12 nM
B28 | 4.39 ± 0.415 nM
B29 | 100 ± 37.5 nM
B30 | 60.5 ± 15.5 nM
B31 | 90 ± 32 nM
B32 | 32.6 ± 5.4 nM
